Holding throughout (assay): peptide library pulldown on immobilized Nb, LC-MS of supernatant; ratio vs GFP-Nb control (1 = not captured, 0 = captured)
Assay [1] addresses T1, BC2T S8(I/L) library peptide, version 2 (N-terminal acetyl, C-terminal amide).
T1 construct: Ile and Leu versions are isobaric; two versions resolved but not assigned; also called BC2TS8X: I/L2
The text has this: (§1) In total, 12 different BC2T libraries displaying all 20 proteinogenic amino acids in one single position of the peptide were used in immunoprecipitation experiments. […] The direct comparison with the GFP-Nb made it possible to determine the quantitative degree of peptide capture without the need of labeled standards. […] The more peptide was captured the more the value approximates 0. It was not possible to discriminate between isoleucine (I) and leucine (L) peptide versions since these peptides are isobaric.
(§2) To investigate the binding specificity of the BC2T and derived mutants peptide libraries for each amino acid position of the sequence […] (SEQ ID NO:4) were synthesized with acetyl and amide groups located at the N-termini or C-termini respectively (Intavis). […] Incubations were performed in 300 μl PBS/0.01% CHAPS for 1 h on a HulaMixer (Life Technologies). Subsequent to a centrifugation step 10 μl supernatant were analyzed in a LC-MS procedure. Peptides were separated using an UltiMate3000 RSLCnano System (Thermo Scientific), composed of a C18 PepMap100μ-Precolumn (300 μm×5 mm; particle size: 5 μm; pore size: 100 Å—Thermo Scientific) and a C18 analytical column (Acclaim Rapid Separation LC (RSLC) Column: 150 mm×5 mm; particle size: 2.2 μm; pore size: 100 Å—Thermo Scientific). A step gradient was applied starting at 8% and ending after 20 min at 30% eluent B (80% acetonitrile, 20% H₂O, 0.1% formic acid).

A further assay concerns the target T2, BC2T S8M library peptide (human).
T2 construct: also called BC2TS8X: M
T2 peptide: Ac-PDRKAAVMHWQQ-NH2
From the text: as §1, §2

Another assay deals with T3, BC2T S8F library peptide (human).
T3 construct: also called BC2TS8X: F
T3 peptide: Ac-PDRKAAVFHWQQ-NH2
From the text: as §1, §2

Another assay concerns the target T4, BC2T S8E library peptide (human).
T4 construct: also called BC2TS8X: E
T4 peptide: Ac-PDRKAAVEHWQQ-NH2
From the text: as §1, §2

Another assay addresses T5, BC2T H9A library peptide (human).
T5 peptide: Ac-PDRKAAVSAWQQ-NH2
From the text: as §1, §2

Assay [2] concerns the target T6, BC2T H9(I/L) library peptide, version 1 (N-terminal acetyl, C-terminal amide).
T6 construct: Ile and Leu versions are isobaric; two versions resolved but not assigned; also called I/L1
From the text: as §1, §2

A further assay deals with T7, BC2T H9R library peptide (human).
T7 peptide: Ac-PDRKAAVSRWQQ-NH2
From the text: as §1, §2

Assay [3] addresses T8, BC2T W10F library peptide (human).
T8 construct: also called BC2TW10X: F
T8 peptide: Ac-PDRKAAVSHFQQ-NH2
From the text: as §1, §2

In assay [4] the target is T9, BC2T W10N library peptide (human).
T9 construct: also called BC2TW10X: N
T9 peptide: Ac-PDRKAAVSHNQQ-NH2
From the text: as §1, §2

The target of assay [5] is T10, BC2T W10E library peptide (human).
T10 construct: also called BC2TW10X: E
T10 peptide: Ac-PDRKAAVSHEQQ-NH2
From the text: as §1, §2

In assay [6] the target is T11, BC2T Q11G library peptide (human).
T11 peptide: Ac-PDRKAAVSHWGQ-NH2
From the text: as §1, §2

Assay [7] concerns the target T12, BC2T Q11N library peptide (human).
T12 peptide: Ac-PDRKAAVSHWNQ-NH2
From the text: as §1, §2

The target of a further assay is T13, BC2T S8A library peptide (human).
T13 construct: also called BC2TS8X: A
T13 peptide: Ac-PDRKAAVAHWQQ-NH2
From the text: as §1, §2

For assay [8], the target named is T14, BC2T Q11D library peptide (human).
T14 peptide: Ac-PDRKAAVSHWDQ-NH2
From the text: as §1, §2

The target in assay [9] is T15, BC2T Q12A library peptide (human).
T15 peptide: Ac-PDRKAAVSHWQA-NH2
From the text: as §1, §2

Assay [10] addresses T16, BC2T Q12G library peptide (human).
T16 peptide: Ac-PDRKAAVSHWQG-NH2
From the text: as §1, §2

Assay [11] has as its target T17, BC2T Q12N library peptide (human).
T17 peptide: Ac-PDRKAAVSHWQN-NH2
From the text: as §1, §2

Assay [12] deals with T18, BC2T Q12C* library peptide (human, SMILES …).
T18 construct: also called C(Abu)
T18 peptide: Ac-PDRKAAVSHWQ[GABA]-NH2
From the text: as §1, §2

For assay [13], the target named is T19, BC2T Q12K library peptide (human).
T19 peptide: Ac-PDRKAAVSHWQK-NH2
From the text: as §1, §2

Square brackets hold non-standard residues; d marks the D form. GABA = NCCCC(=O)O

B1: BC2-Nb(R106E) (VHH)
VHH: QVQLVESGGGLVQPGGSLTLSCTASGFTLDHYDIGWFRQAPGKEREGVSCINNSDDDTYYADSVKGRFTIFMDNAKDTVYLQMNSLKPEDTAIYYCAEARGCKRGEYEYDFWGQGTQVTVSS
notes: Headlock mutant; immobilized on beads in the library pulldown
As for B1, the ratio in assay [1] amounted to 0.9; with BC2T S8M library peptide it was 1; in the assay with BC2T S8F library peptide, 0.9; with BC2T S8E library peptide, 0.9; with BC2T H9A library peptide, 0.3; in [2] it was 0.4. Besides, the ratio with BC2T H9R library peptide was 0.1; in assay [3] it was 1; in assay [4], 1.2; in assay [5] it was 1.2; in assay [6] it was 0.4; in assay [7], 0.2. Besides, the ratio worked out at 0.1 with BC2T S8A library peptide; 0.5 in assay [8]; 0.1 in assay [9]; 0.2 in assay [10]; 0.1 in assay [11]; 0.1 in assay [12]. Moreover, the ratio in assay [13] worked out at 0.

Source of the values: patent US20170137467A1 (CHROMOTEK, published 2017).
